Measured values from patent US9732156B2, “Methods of treating rheumatoid arthritis using antibodies to matrix metalloproteinase 9” (Gilead Biologics, Inc., priority 2012, dated 2017).

Key:
[1] = test system: Lewis rats; conditions: rat, in vivo
Description: AB0041 was evaluated for safety in Lewis rats in comparison to the pan-MMP inhibitor, Marimastat, in a 28-day study.
Six rats per group were intravenously administered twice per week with either AB0041 at 50 mg/kg or Vehicle-A (10 mM sodium phosphate, pH 6.5, 140 mM sodium chloride, 0.01% Tween20). In addition, six rats per group were treated with Marimastat or Vehicle-M (50% DMSO/50% water) through a surgically implanted subcutaneous Alzet pump (Alzet, Cupertino, Calif.), which delivered at a rate of 2.5 μl/hour for a period of 28 days. The Marimastat release rate was between 6.8 to 5.7 mg/kg/day.
Animals were observed and scored daily for signs of MSS, such as reluctance to move and avoidance of the use of the hind feet. The following system was used to score resting posture, gait and willingness to move: resting posture was scored as 0 (normal), 1 (resting on one foot) or 2 (resting on neither one foot nor two feet). Gait was scored as either 0 (normal), 1 (avoids use of one hind foot) or 2 (avoids use of both hind feet). Willingness-to-move upon stimulation was scored as either 0 (normal movement), 1 (somewhat reluctant to move), 2 (moderately reluctant to move) or 3 (very reluctant to move). In addition, the body weights were recorded twice weekly.
Total scores were calculated as the sum of gait score, resting posture score and willingness-to-move score for each animal. Mean total scores per group were calculated as the average of the total scores from all individual animals per group per day.
Serum was collected from all rats on one day before and days 1, 7, 10, 14, 17, 21, 24, 28 post administration. Serum was centrifuged at 10,000×g for 10 minutes and collected for storage at −20° C. Serum was subject to multianalyte serum protein analysis (RodentMAPv2.0, IDEXX Laboratories).
Tissues and limbs from the rats were harvested and fixed in 10% neutral buffered formalin for histopathologic analysis using hematoxylin and eosin (H&E).

[2] = test system: collagen-induced arthritis; test: Collagen-induced arthritis (CIA) rat model of established disease; format: in vivo; conditions: terminal serum, ELISA
Description: (§1) This example provides additional characterizations of the animals in example 7 that were treated with either vehicle, AB0041 (in the rat model) or AB0046 (in the mouse model) at 2, 10, or 50 mg/Kg, Enbrel at 10 mg/Kg, or methotrexate (MTX) at 0.5 mg/Kg.
(§2) In addition to clinical scoring in Table 6 that was conducted in example 7, paw swelling, ankle diameter and body weights of the treated animals were measured. The measurements were conducted once a week before randomization and three times a week thereafter.
In addition, hind limbs were examined microscopically for soft-tissue changes (edema, tissue/vessel necrosis, inflammatory cell infiltration, and fibroplasias) and cartilage and bone changes (cartilage erosion, bone erosion, periosteal bone formation, synovitis, pannus formation, and joint destruction). […] The severity scores were based on global changes in each limb.
For anti-TNF-alpha scoring, the entire region of the limb anterior to the tarsal-metatarsal joint was scored. Anti-CD68 staining was evaluated using 3-4 images per limb of synovial membranes in the joints formed by the talus bone, with the scores of each membrane averaged and the value assigned as the overall inflammation score. […] Also, MMP9-expressing cells were identified as osteoclasts and cells of the monocyte/macrophage lineage.
(§3) Further, serum panel analyses of terminal serum samples were characterized using ELISA. […] AB0046 titers were measured in terminal serum samples.

[3] = test system: DSS-induced colitis; test: DSS-induced colitis model, treatment of established disease (Example 4); format: in vivo, mouse; conditions: for reduction of the incidence of diarrhea: AUC, did not reach statistical significance; for mean endoscopy score: Day 14 (and Day 10), vs Vehicle and AC-1, AB0046 30 mg/kg IP, ENBREL 10 mg/kg IP; for histopathology: inflammation, edema, mucosal necrosis: colons at termination, compared to vehicle; for MMP9 expression in colon by IHC: three colons per group
Description: The dextran sodium sulfate (DSS)-induced model of colitis is an accepted model for evaluation of inflammatory bowel disease therapeutics. In this model, oral administration of DSS to mice or rats results in damage to the colonic mucosa. Animals receiving DSS develop bloody diarrhea and lose weight. The inflammation and tissue degradation observed in this model is restricted to the mucosa and generally affects the entire colon. […] The localization of disease and the pathology observed in this model is considered to be reminiscent of human ulcerative colitis (UC), including similar inflammatory cell infiltrate, ulceration, and crypt abscesses.
AB0046 was used in the DSS colitis model (in a 14-day treatment model). Treatment began after 5 days of oral exposure to 3% DSS in drinking water, according to the following experimental design: disease induction with 3% DSS was carried out beginning at day 0 through day 5, with treatment beginning at day 6 (treatment details for animals in groups 1-5 given in Table 2, below); animals were sacrificed at day 14. Etanercept (marketed under the trade name ENBREL®) was used as a reference compound for the therapeutic effect of anti-TNFα therapy in this model. AC-1, an irrelevant antibody of matched isotype (IgG1), was used as a control.
The course of disease was evaluated by video endoscopy (at days 6, 10, and 14), animal weight measurements, observation of stool consistency, and post-study histopathology analysis of colons.
Video endoscopy of the lower colon was performed in a blinded fashion using a small animal endoscope; colitis was scored visually on a scale of 1-4 based on the degree of ulceration, friability, and vascularity present in the tissue. Each mouse was assigned a single score corresponding to the most severe damage observed throughout the entire length of the colon examined.
At study termination, the majority of the distal colon was excised from each animal, formalin-fixed, then embedded in paraffin and sectioned for histology. Slides were stained with hematoxylin and eosin and examined by a board-certified veterinary pathologist blinded as to treatment groups. Tissues were scored for inflammation, edema, and mucosal necrosis according to the scoring scale of 1-4 for each parameter. Sum pathology scores were calculated by summing the three individual parameter score means (inflammation, edema and necrosis).
Body weight and the incidence of diarrhea were recorded daily over the course of the study. The evaluation of body weight changes was performed by calculating the area under the curve (AUC) with the trapezoidal rule method; a similar calculation of AUC for stool consistency was performed by assigning incidence of diarrhea a score of 100 and lack of diarrhea a score of 0.
A trend for reduction of systemic disease-associated cytokines by AB0046 was observed. […] Serum MMP-9 levels were not induced (i.e., no difference between no DSS and vehicle groups; interference by drug antibody cannot be ruled out for MMP9 serum level measurements).

[4] = test system: UC; conditions: cited from earlier work
[5] = test system: CD4+ T cell; test: EpiScreen ex vivo human T cell activation assay (immunogenicity); format: cell-based; conditions: CD4+ T cell response, 20 healthy donors of various HLA haplotypes
Description: The potential clinical immunogenicity of the chimeric MMP9 antibody AB0041 and the humanized MMP9 antibody AB0045 was assessed. An ex vivo human T cell activation assay, the EpiScreen (Antitope, Ltd., Cambridge, UK) was used. The T cell activation in the EpiScreen assay has been correlated to the antibody/protein therapeutic responses in patients. The response of CD4+ T cell in 20 healthy donors, representing a variety of HLA haplotypes, was examined. […] A positive control of KLH induced a response in 95% of the donors, with a magnitude of 6.34+/−2.77 (mean+/−standard deviation).

[6] = target: T1, MMP9 (Homo sapiens, UniProt P14780); test: IHC binding of AB0045 in UC patient colon tissue; design: from tissue; host or cells: colon tissue (biopsies) of human ulcerative colitis patients
Description: Biopsy samples from human patients with ulcerative colitis (UC) and healthy individuals were examined by immunohistochemistry (IHC) using the MMP9-specific antibodies. Antibodies against myeloperoxidase (MPO, a neutrophil marker; Wirtz 2007), collagen IV (COLIV, basement membranes) and CD31 (endothelial cells) were used to assess disease severity and tissue infrastructure. Staining patterns of TIMP1 and MMP2 also were examined. PMK2 (a macrophage marker) also was assessed.
Target sequence in this assay (P14780 94-707): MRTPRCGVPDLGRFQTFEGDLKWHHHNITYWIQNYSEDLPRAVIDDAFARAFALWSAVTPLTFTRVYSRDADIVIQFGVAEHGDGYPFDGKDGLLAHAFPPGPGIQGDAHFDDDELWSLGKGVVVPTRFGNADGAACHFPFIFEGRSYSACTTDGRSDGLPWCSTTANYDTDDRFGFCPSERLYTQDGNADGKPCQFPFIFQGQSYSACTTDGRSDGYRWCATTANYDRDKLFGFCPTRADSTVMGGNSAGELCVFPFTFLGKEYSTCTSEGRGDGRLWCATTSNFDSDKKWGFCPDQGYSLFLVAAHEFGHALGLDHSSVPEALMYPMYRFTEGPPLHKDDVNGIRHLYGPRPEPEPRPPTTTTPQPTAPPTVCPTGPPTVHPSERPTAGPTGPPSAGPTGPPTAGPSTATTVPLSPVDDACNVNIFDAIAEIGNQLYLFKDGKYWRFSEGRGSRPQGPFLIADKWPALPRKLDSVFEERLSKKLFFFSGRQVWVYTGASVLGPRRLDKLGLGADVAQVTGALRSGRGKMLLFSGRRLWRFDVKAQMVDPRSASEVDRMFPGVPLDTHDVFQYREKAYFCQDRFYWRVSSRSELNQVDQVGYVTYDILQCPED

[7] = target: T1, MMP9; test: Comparison of binding and inhibitory properties of anti-MMP9 antibodies; conditions: AB0045 compared with AB0041
Target sequence in this assay (P14780 94-707, species assumed): as the sequence (P14780 94-707) above

[8] = test system: collagen-induced arthritis; test: CIA mouse model of rheumatoid arthritis; format: in vivo
Description: as §1, §2
In addition, hind limbs were examined microscopically for soft-tissue changes (edema, tissue/vessel necrosis, inflammatory cell infiltration, and fibroplasias) and cartilage and bone changes (cartilage erosion, bone erosion, periosteal bone formation, synovitis, pannus formation, and joint destruction). A standard severity score was used: 0=no significant change, 1=minimal, 2=mild, 3=moderate and 4=severe. The severity scores were based on global changes in each limb.
as §3

[9] = test system: DSS-induced colitis; test: DSS colitis model, prophylactic treatment (Example 5); format: in vivo, mouse
Description: The efficacy of AB0046 in a prophylactic setting was assessed and compared with reference agent Prednisolone. The indicated treatment was given at day −1, with the indicated dosing schedules. Induction of disease with 3% DSS was initiated at day 0 and was as described above. Animals were sacrificed at day 14.

[10] = Antibody titers in serum of the CIA study; format: in vivo, mouse
Description: as §3

In the case of `CNC(=O)[C@@H](NC(=O)[C@H](CC(C)C)[C@H](O)C(=O)NO)C(C)(C)C` [Marimastat], the “average daily total MSS score” value ([1]; Lewis, 18 day) is reported as “above 4.0”, the “average MSS score” value ([1]; Lewis, 25 day) is reported as 5.8 and the “H&E staining of hind knee joints” value [1] is reported as “histopathological evidence of fibroplasia was seen”. The “fibrosis and synovitis in limbs” value [1] was “Fibrosis and synovitis were observed”, the “rats with slight limping, avoidance of one hind foot (gait score=1)” value [1] was “five” and the severity of fibrosis [1] was “mild to severe”. For the same molecule, the severity of synovitis [1] was “mild”.

With `CN(Cc1cnc2nc(N)nc(N)c2n1)c1ccc(C(=O)N[C@@H](CCC(=O)O)C(=O)O)cc1` [methotrexate, reference compound] the “serum markers (TIMP-1, GM-CSF, MIP-2, MIP-1β, M-CSF-1, OSM, CXCL10, MCP-5, IL-12p70, INF-γ, IL-12, IL-7)” value [2] was “consistent increase in these markers”.

In the case of ENBREL [reference compound], the “reduction of the incidence of diarrhea” value [3] is reported as “similar”, the mean endoscopy score [3] is reported as “significant improvement in endoscopy scores” and the “histopathology: inflammation, edema, mucosal necrosis” value [3] is reported as “significantly reduced all three aspects of disease pathology”. For the same molecule, the “MMP9 expression in colon by IHC” value [3] was “Reduction of MMP9” and the “serum markers (TIMP-1, GM-CSF, MIP-2, MIP-1β, M-CSF-1, OSM, CXCL10, MCP-5, IL-12p70, INF-γ, IL-12, IL-7)” value [2] was “No reduction of serum markers”.

In the case of “Infliximab: chimeric therapeutic anti-TNF-alpha antibody Remicade (infliximab)”, the “patients achieving long-term remission completely free of corticosteroids” value [4] is given as 26%, the “patients achieving remission by week 8 and remaining in remission through 54 weeks” value [4] is given as 20% and the “patients failing to maintain response over 30 or 54 weeks” value [4] is given as “approximately 60%”.

B1: AB0045: humanized variant anti-MMP9 antibody, modified IgG4 (S241P), heavy chain variant VH3 (SEQ ID NO: 7), light chain Vk4 (SEQ ID NO: 12) (antibody, V domains shown)
VH: QVQLQESGPGLVKPSETLSLTCTVSGFSLLSYGVHWVRQPPGKGLEWLGVIWTGGTTNYNSALMSRFTISKDDSKNTVYLKMNSLKTEDTAIYYCARYYYGMDYWGQGTLVTVSS
VL: DIQMTQSPSSLSASVGDRVTITCKASQDVRNTVAWYQQKPGKAPKLLIYSSSYRNTGVPDRFSGSGSGTDFTLTISSLQAEDVAVYYCQQHYITPYTFGGGTKVEIK
modifications: modified IgG4 S241P constant region
For B1, the “donors in which a response was induced” value [5] was “did not induce response in any of the donors”, the “binding to MMP9 by IHC” value [6] was “bound to MMP9 in UC patient colon tissue” and the “binding and inhibitory properties” value [7] was “equivalent binding and inhibitory properties”.

B2: AB0046: mouse anti-mouse MMP9 surrogate antibody, kappa light chain (SEQ ID NO: 45), IgG1 heavy chain (SEQ ID NO: 46) (antibody, listed as Mus musculus)
heavy: MGWSSIILFLVATATGVHSQVQLQQPGSVLVRPGASVKLSCTASGYTFTSYWMNWVKQRPGQGLEWIGEIYPISGRTNYNEKFKVKATLTVDTSSSTAYMDLNSLTSEDSAVYYCARSRANWDDYWGQGTTLTVSSAKTTPPSVYPLAPGSAAQTNSMVTLGCLVKGYFPEPVTVTWNSGSLSSGVHTFPAVLQSDLYTLSSSVTVPSSTWPSETVTCNVAHPASSTKVDKKIVPRDCGCKPCICTVPEVSSVFIFPPKPKDVLTITLTPKVTCVVVDISKDDPEVQFSWFVDDVEVHTAQTQPREEQFNSTFRSVSELPIMHQDWLNGKEFKCRVNSAAFPAPIEKTISKTKGRPKAPQVYTIPPPKEQMAKDKVSLTCMITDFFPEDITVEWQWNGQPAENYKNTQPIMDTDGSYFVYSKLNVQKSNWEAGNTFTCSVLHEGLHNHHTEKSLSHSPGK
light: MSSAQFLGLLLLCFQGTRCDIQMTQTTSSLSASLGDRVTISCSASQGISNYLNWYQQKPDGTFKLLIYYTSILHSGVPSRFSGSGSGTDYSLTISNLEPEDIATYYCQQYGWLPRTFGGGTKLEIKRADAAPTVSIFPPSSEQLTSGGASVVCFLNNFYPKDINVKWKIDGSERQNGVLNSWTDQDSKDSTYSMSSTLTLTKDEYERHNSYTCEATHKTSTSPIVKSFNRNEC
modifications: CHAIN (1)...(460) AB0046 IgG1 heavy chain; CHAIN (1)...(233) AB0046 kappa light chain
For B2, the “soft tissue disease, joint damage and destruction (histology)” value ([8]; 50 mg/kg) was “reduced all measures of soft tissue diseases, joint damage and destruction”, the “qualitative and quantitative measurements of clinical disease (paw swelling, ankle diameter, body weight)” value ([8]; all doses (2, 10, 50 mg/Kg)) was “significant reversal/mitigation” and the “serum markers (KC/GRO, MIP-2, GCP-2, lymphotactin, MCP-1, MCP-3, CXCL-10, OSM, MIP-1β, MIP-1γ, Apo A-1)” value ([8]; terminal serum, ELISA) was “statistically significant reduction”. The endoscopic evaluation ([9]; Day 10, 30 mg/kg IP from day −1) was “efficacy of AB0046 prophylactic treatment was observed”, the incidence of diarrhea ([9]; prophylactic administration) was “reduced the incidence of diarrhea” and the “inflammation, edema, necrosis and pathology sum score” value ([9]; study termination) was “reduced inflammation, edema, and necrosis”. The “reduction of the incidence of diarrhea” value [3] was “about 30%”, the mean endoscopy score [3] was “significant improvement in mean endoscopy scores” and the “histopathology: inflammation, edema, mucosal necrosis” value [3] was “significantly reduced all three aspects of disease pathology”. For the same molecule, the “disease-associated increases in serum MCP-1, MCP-3 and eotaxin” value ([3]; terminal serum) was “reduced”, the “serum mediators KC/GRO, CXCL10, MPO, LIF, MIP-2, MCP-5” value ([3]; terminal serum, multianalyte ELISA) was “systemic reduction” and the “serum IL-17A” value ([3]; terminal serum, near lower level of quantification) was “trend for a reduction”. The “serum IL-6” value ([3]; terminal serum, not distinguished from AC-1 isotype control) was “reduction”, the “MMP9 expression in colon by IHC” value [3] was “reduction in MMP9 expression” and the “body weight loss (AUC)” value ([3]; vs AC-1 isotype control or vehicle) was “significant protection against body weight loss”. The “antibody titer in serum” value ([10]; 2 mg/kg dose level) was “not detectable” and the “antibody titer in terminal serum” value ([10]; dosing regimens of 10 and 50 mg/kg) was “measurable drug levels”.
